Test results reported in patent US7314709B2, “Compositions and methods for detecting and quantifying COX-2 activity by lipoamino acid metabolism” (Vanderbilt University, priority 2002, dated 2008).

Assays:
[1] = mice [16,17]; cited from earlier work
[2] = rats [16,17]; cited from earlier work
ovine COX-1 (oCOX-1) = molecular target: T1, ovine COX-1 (oCOX-1) (Ovis aries, UniProt P05979); conditions: compared with AA; cited from earlier work
T1 construct: COX-1 was purified from ram seminal vesicles as previously described; tissue Oxford Biomedical Research; host or cells: ram seminal vesicles
T1 sequence (P05979 25-600): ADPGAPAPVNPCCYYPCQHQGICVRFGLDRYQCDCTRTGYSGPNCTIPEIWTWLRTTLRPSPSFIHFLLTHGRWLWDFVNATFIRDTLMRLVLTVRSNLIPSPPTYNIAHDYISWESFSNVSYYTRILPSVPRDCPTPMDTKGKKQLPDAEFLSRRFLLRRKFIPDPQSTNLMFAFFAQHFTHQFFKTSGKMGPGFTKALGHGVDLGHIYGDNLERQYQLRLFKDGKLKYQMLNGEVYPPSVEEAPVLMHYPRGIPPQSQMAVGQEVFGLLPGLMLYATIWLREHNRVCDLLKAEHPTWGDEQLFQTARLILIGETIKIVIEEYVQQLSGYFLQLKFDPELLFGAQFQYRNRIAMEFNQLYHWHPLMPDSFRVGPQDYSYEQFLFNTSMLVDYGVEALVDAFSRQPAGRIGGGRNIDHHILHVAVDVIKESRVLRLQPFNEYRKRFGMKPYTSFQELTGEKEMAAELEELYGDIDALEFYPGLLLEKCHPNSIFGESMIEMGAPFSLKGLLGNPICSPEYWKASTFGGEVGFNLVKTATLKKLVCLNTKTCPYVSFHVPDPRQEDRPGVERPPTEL

[3] = substrate: CCCCC/C=C\C/C=C\C/C=C\C/C=C\CCCC(=O)O; test: Steady-state kinetics of COX-2 mediated oxygenation (oxygraph O2 uptake); assay type: biochemical, murine; conditions: other: 50 nM COX-2, 100 mM Tris-HCl, 500 μM phenol
Procedure: (§1) Enzymology: COX-1 was purified from ram seminal vesicles as previously described. Site-directed mutagenesis of COX-2 was performed as described previously. Recombinant COX-2 enzymes were expressed in Sf-9 insect cells and purified by ion-exchange chromatography and gel filtration as previously described. Apo-enzymes were reconstituted with hematin prior to activity assays. […] COX activity was quantified as previously described. Initial reaction velocity data were obtained from the linear portion of the oxygen uptake curves. Oxygraph data were analyzed by nonlinear regression with Enzyme Kinetics 1.5 software (Trinity Software, Campton, N.H.).

[4] = substrate: CCCCC/C=C\C/C=C\C/C=C\C/C=C\CCCCNCC(=O)O; test: as above; assay type: biochemical, murine; conditions: other: 50 nM COX-2, 100 mM Tris-HCl, 500 μM phenol
Procedure: as §1

CCCCC/C=C\C/C=C\C/C=C\C/C=C\CCCC(=O)NCCCC(=O)O [δ-arachidonyl aminobutuyic acid]
analgesia [1]: induce analgesia
formalin-induced tonic inflammatory pain [2]: suppresses formalin-induced tonic inflammatory pain

CCCCC/C=C\C/C=C\C/C=C\C/C=C\CCCC(=O)NCCO [AEA, arachidonyl ethanolamide]
metabolism by COX-1 (ovine COX-1 (oCOX-1)): much lesser extent than AA

CCCCC/C=C\C/C=C\C/C=C\C/C=C\CCCC(=O)OC(CO)CO [2-AG, 2-arachidonlyglycerol]
metabolism by COX-1 (ovine COX-1 (oCOX-1)): much lesser extent than AA

B1: Murine COX-2 (Mus musculus) (protein)
chain: ANPCCSNPCQNRGECMSTGFDQYKCDCTRTGFYGENCTTPEFLTRIKLLLKPTPNTVHYILTHFKGVWNIVNNIPFLRSLIMKYVLTSRSYLIDSPPTYNVHYGYKSWEAFSNLSYYTRALPPVADDCPTPMGVKGNKELPDSKEVLEKVLLRREFIPDPQGSNMMFAFFAQHFTHQFFKTDHKRGPGFTRGLGHGVDLNHIYGETLDRQHKLRLFKDGKLKYQVIGGEVYPPTVKDTQVEMIYPPHIPENLQFAVGQEVFGLVPGLMMYATIWLREHNRVCDILKQEHPEWGDEQLFQTSRLILIGETIKIVIEDYVQHLSGYHFKLKFDPELLFNQQFQYQNRIASEFNTLYHWHPLLPDTFNIEDQEYSFKQFLYNNSILLEHGLTQFVESFTRQIAGRVAGGRNVPIAVQAVAKASIDQSREMKYQSLNEYRKRFSLKPYTSFEELTGEKEMAAELKALYSDIDVMELYPALLVEKPRPDAIFGETMVELGAPFSLKGLMGNPICSPQYWKPSTFGGEVGFKIINTASIQSLICNNVKGCPFTSFNVQDPQPTKTATINASASHSRLDDINPTVLIKRRSTEL
notes: made in house; host or cells: Sf-9 insect cells
Km [3]: 3.3 ± 1.0 µM
kcat [3]: 16.6 ± 1.7 s⁻¹
kcat/Km [3]: 5.08e+06 M⁻¹ s⁻¹
Km [4]: 11.7 ± 1.4 µM
kcat [4]: 6.3 ± 1.1 s⁻¹
kcat/Km [4]: 540000 M⁻¹ s⁻¹
